What was measured:
[1] = molecular target: Bcl-2 (mouse; recombinant, and endogenous in mouse heart) (UniProt P10417); test: GST pull-down after kinase reaction; details: sites T108
[2] = molecular target: Bcl-xL (recombinant) (UniProt Q07817); test: GST pull-down after kinase reaction; details: reference: GST-Beclin1-WT without Mst1; sites T108

Substance | binding against the reference ([1]; reference: GST-Beclin1-WT without Mst1) | binding against the reference [2] | binding against the reference ([1]; reference: GST-Beclin1-N2 without Mst1)
Beclin1 (recombinant GST-Beclin1; adenoviral Beclin1 constructs) (from UniProt Q14457) GST-Beclin1-WT treated with Mst1 and ATP | stronger | stronger | 
Beclin1 (recombinant GST-Beclin1; adenoviral Beclin1 constructs) Beclin1-N2, 72-163 (from UniProt Q14457) GST-Beclin1-N2 treated with Mst1 and ATP |  |  | stronger

From publication PMC3823824
